Experiment: yeast display, Sf9 membrane polyspecificity reagent, FACS + sequencing; frameworks hold sequencing errors
How it was run: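 Nanobodies came from a synthetic yeast display library in Saccharomyces cerevisiae BJ5465, induced with galactose for 36–48 hours and stained for 1 hour at 4 °C with 10% biotinylated, detergent-solubilized Sf9 membrane reagent. Cells were enriched on streptavidin microbeads and then FACS-sorted, with low and high (top ~1%) gates set on anti-HA fluorescence for expression and streptavidin fluorescence for reagent binding. Each polyreactivity label reflects the gate a clone came from. Genes were amplified by colony PCR, sequenced by MiSeq 2 × 250 and filtered by CDR length.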

| Sequence | polyreactivity (PSR sort gate) |
| --- | --- |
| QVQLVESGGGLVQAGGSLRLSCAASGSTFHRNAMGWSRQAPGKERELVAAISFSGGRTYYADSVKGRFTISRDNAKNTVNLQMNSLKPEDTAVYYCAAVTASPGSYPDDYWGQGTQVTVSS | low polyreactivity |
| QVQLVESGGGLVQAGGSLRLSCAASGSTFHRYAMGWSRQAPGKERELVATINLNTGSTYADSVKGRFTISRDNAKNTVYVQMNSLKPEDTAVYYCAAYGRWPFTWYNYWGQGTQVTVSS | low polyreactivity |
| QVQLVESGGGLVQAGGSLRLSCAASGSTFHRYAMGWYRQAPGKERELVATITSRGGITYYADSVKGRFTISRDNSKNTVYLQMNSLNPEDTALYYCNTEDGTTPQYGYDQGMYYWGQGTQVTVSS | low polyreactivity |
| QVQLVESGGGLVQAGGSLRLSCAASGSTFHTYVMGWYRQAPGKERELVASISSGGSTYYADSVKGRFTISRDNAKNTVSLQMNSLKPEDTAVYYCAAGYPYYWHFDYWGQGSQVTVSS | low polyreactivity |
| QVQLVESGGGLVQAGGSLRLSCAASGSTFHWYDMGWYRQAPGKERELVAGINTSGDGTYYADSVKGRFTISRDNAKNTVYLQMNSLKPEDTAVYYCAAEYYTYWGYEDDYWGQGTQVTVSS | low polyreactivity |
| QVQLVESGGGLVQAGGSLRLSCAASGSTFHYYAMGWYRQAPGKERELVAAINSGARTYYADSVKGRFTISRDNAKNTVYLQMNSLKPEDTAVYYCAKDYTYSFGRSLDYWGQGTQVTVSS | low polyreactivity |
| QVQLVESGGGLVQAGGSLRLSCAASGSTFHYYAMGWYRQEPGKERELVAAISGSGSSTYYADSVKGRFTISRDNAKNTVYLQMNSLKPEDTAVYYCNARGHYPRARFGYKSGSDRYWGQGTQVTVSS | high polyreactivity |
| QVQLVESGGGLVQAGGSLRLSCAASGSTFIDYAMGWYRQAPGKERELVASITWSGGSTYYADSVKGRFTISRDNAKNTVYLQMNSLKPEDTAVYYCNADVNVGLEVRIVYEYDYWGQGTQVTVSS | low polyreactivity |
| QVQLVESGGGLVQAGGSLRLSCAASGSTFIGYDMGWFRQAPGTERELVAAISYSDGTYYADSVKGRFTISRDNAKNTVYLQMNSLKPEDTAVYYCAADSLYYRYDYWGQGTQVTVSS | low polyreactivity |
| QVQLVESGGGLVQAGGSLRLSCAASGSTFIGYDMGWYRQAPGQERELVAAISYSDGTYYADSVKGRFTISRDNAKNTVYLQMNSLKPEDTAVYYCATSYRDMGSHVGYWGQGTQLTVSS | low polyreactivity |
| QVQLVESGGGLVQAGGSLRLSCAASGSTFILNAMGWYRQAPGKEWELVAAISRSGGNTYYADSVKGRFTISRDIAKNTVYLQMNSLKPEDTAVYYCAATRRSHYYYWGQGTQVTVSS | high polyreactivity |
| QVQLVESGGGLVQAGGSLRLSCAASGSTFILNDMGWYRQAPGKERELVAAIDWGDSTTYYADSVKGRFTISRDNAKNTVYLQMNSLKPEDTAVYYCAADYAVSAFTRYPPTEYWGQGTQVTVSS | high polyreactivity |
| QVQLVESGGGLVQAGGSLRLSCAASGSTFILNYMGWYRQAPGKERELVAAIDWGDSTTYYADSVKGRFTISRDNAKNTVYLQMNSLKPEDTAVYYCAADFAVSAFTRYPPTEYWGQGTQVTVSS | high polyreactivity |
| QVQLVESGGGLVQAGGSLRLSCAASGSTFIPNTMGWYRQEPGKERELVAAISRRGGSTNYADSVKGRFTISRDNAKYTVYLQMNSLKPEDTAVYYCAAVSPRRYRYDYWGQGTQVTVSS | low polyreactivity |
| QVQLVESGGGLVQAGGSLRLSCAASGSTFIRNAMGWYRQAPGKERELVAAISSSGGRTYYADSVKGRFTISRDNAKNTVYLQMNSLKPEDTAVYYCAARNARYVHTMEYWGQGTQVTVSS | high polyreactivity |
| QVQLVESGGGLVQAGGSLRLSCAASGSTFIRNAMGWYRQAPGKERELVAVISSGGSTYYADSVKGRFTISRDNAKNTVYLQMNSLKPEDTAVYYCAAGDPQKEDYWGQGTQVTVSS | low polyreactivity |
| QVQLVESGGGLVQAGGSLRLSCAASGSTFISNAMGWYRQAPGKEREFVAAITSSGGSTYYADSVKGRFTISRDNAKNSVYLQMNSLKPEDSAVYYCARDVWSPDYLYDYWGQGTQVTVSS | low polyreactivity |

— the nanobody polyreactivity screen of Harvey et al. (2022)
